From article PMC9482650, “Quantitative fragmentomics allow affinity mapping of interactomes” (Nature Communications, 2022)

T1: APBA1_2, Q02410
T1 sequence (Q02410 742-832, limits assumed, looked up): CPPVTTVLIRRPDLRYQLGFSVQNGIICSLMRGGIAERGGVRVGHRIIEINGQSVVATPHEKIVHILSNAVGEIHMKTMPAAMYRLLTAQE

T2: APBA2_2, Q99767
T2 sequence (Q99767 654-744, limits assumed, looked up): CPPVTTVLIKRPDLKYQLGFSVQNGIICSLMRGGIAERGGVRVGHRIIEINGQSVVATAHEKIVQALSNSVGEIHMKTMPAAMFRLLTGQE

T3: ARHGAP21, Q5T5U3
T3 sequence (Q5T5U3 45-169, limits assumed, looked up): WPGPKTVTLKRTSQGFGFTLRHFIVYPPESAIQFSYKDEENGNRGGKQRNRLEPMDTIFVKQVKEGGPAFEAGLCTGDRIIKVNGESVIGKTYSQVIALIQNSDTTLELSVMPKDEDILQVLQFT

T4: LNX2_3, Q8N448
T4 sequence (Q8N448 463-564, limits assumed, looked up): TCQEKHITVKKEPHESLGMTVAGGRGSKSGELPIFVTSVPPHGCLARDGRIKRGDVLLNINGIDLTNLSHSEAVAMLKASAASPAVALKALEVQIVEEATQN

T5: MPP2, Q14168
T5 sequence (Q14168 180-250, limits assumed, looked up): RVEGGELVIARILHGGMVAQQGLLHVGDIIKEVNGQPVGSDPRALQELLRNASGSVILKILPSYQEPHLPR

T6: MPP7, Q5T2T1
T6 sequence (Q5T2T1 134-230, limits assumed, looked up): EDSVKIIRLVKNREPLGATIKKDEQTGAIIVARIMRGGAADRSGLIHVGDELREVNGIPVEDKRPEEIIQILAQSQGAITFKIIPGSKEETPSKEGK

T7: NHERF3_1, Q5T2W1
T7 sequence (Q5T2W1 4-100, limits assumed, looked up): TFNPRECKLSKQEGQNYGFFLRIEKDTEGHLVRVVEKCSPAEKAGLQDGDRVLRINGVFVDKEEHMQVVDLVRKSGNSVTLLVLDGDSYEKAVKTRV

T8: PCLO, Q9Y6V0
T8 sequence (Q9Y6V0 4491-4600, limits assumed, looked up): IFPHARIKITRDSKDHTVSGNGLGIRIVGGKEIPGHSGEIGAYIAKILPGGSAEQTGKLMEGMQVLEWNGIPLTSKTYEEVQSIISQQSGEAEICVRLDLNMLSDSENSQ

T9: PDZRN3_1, Q9UPQ7
T9 sequence (Q9UPQ7 244-349, limits assumed, looked up): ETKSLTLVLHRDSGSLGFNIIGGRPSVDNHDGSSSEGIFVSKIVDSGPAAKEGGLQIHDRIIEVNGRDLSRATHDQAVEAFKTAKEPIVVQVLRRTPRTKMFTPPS

T10: SNTG1, Q9NSN8
T10 sequence (Q9NSN8 52-150, limits assumed, looked up): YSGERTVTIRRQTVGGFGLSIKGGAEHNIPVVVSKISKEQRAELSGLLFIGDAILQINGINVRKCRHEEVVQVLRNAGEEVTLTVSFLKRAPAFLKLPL


Columns and labels:
Assay in all cases: holdup assay
Parameters in all cases: key: below the threshold = too weak to quantify, mostly under pKd 3.1 to 4
Details in all cases: plain residues with an end cap or a label only (N-terminal biotin on a linker: ado-ado)
[1] = target: T1, APBA1_2, Q02410
[2] = target: T2, APBA2_2, Q99767
[3] = target: T3, ARHGAP21, Q5T5U3
[4] = target: DLG1_1, Q12959
[5] = target: DLG4_2, P78352
Chain of DLG4_2, P78352 (P78352 155-259): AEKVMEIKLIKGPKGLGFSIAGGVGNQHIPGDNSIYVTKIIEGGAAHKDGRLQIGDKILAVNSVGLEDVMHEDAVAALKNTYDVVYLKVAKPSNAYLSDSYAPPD

[6] = target: FRMPD4, Q14CM0
Chain of FRMPD4, Q14CM0 (Q14CM0 67-160): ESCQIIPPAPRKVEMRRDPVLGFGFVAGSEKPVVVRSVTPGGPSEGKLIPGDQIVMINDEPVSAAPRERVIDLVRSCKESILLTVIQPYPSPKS

[7] = target: GRID2IP_2, A4D2P6
Chain of GRID2IP_2, A4D2P6 (A4D2P6 272-370): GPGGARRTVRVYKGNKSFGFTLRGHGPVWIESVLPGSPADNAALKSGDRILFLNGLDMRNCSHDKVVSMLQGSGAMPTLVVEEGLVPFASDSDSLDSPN

[8] = target: GRIP2_3, Q9C0E4
Chain of GRIP2_3, Q9C0E4 (Q9C0E4 238-339): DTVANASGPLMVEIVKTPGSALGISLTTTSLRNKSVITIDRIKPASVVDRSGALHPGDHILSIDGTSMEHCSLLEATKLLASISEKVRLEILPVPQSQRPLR

[9] = target: GRIP2_4, Q9C0E4
Chain of GRIP2_4, Q9C0E4 (Q9C0E4 446-548): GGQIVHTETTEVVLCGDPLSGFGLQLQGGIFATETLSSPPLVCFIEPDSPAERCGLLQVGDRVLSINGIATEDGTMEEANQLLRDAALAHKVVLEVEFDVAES

[10] = target: GRIP2_5, Q9C0E4
Chain of GRIP2_5, Q9C0E4 (Q9C0E4 544-642): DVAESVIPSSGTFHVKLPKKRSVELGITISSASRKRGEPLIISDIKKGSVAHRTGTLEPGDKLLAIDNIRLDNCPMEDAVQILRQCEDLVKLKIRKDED

[11] = target: GRIP2_6, Q9C0E4
Chain of GRIP2_6, Q9C0E4 (Q9C0E4 648-740): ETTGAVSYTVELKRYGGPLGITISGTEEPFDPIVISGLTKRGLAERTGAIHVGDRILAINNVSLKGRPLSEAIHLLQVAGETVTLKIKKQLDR

[12] = target: IL16_1, Q14005
Chain of IL16_1, Q14005 (Q14005 210-306): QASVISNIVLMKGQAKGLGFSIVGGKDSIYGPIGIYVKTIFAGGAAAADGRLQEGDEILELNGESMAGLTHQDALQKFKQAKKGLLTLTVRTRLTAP

[13] = target: IL16_3, Q14005
Chain of IL16_3, Q14005 (Q14005 1107-1207): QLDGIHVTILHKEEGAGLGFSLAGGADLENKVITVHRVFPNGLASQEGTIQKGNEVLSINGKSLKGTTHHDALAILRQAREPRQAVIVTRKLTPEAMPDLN

[14] = target: Inadl_10, Q8NI35
Chain of Inadl_10, Q8NI35 (Q8NI35 1673-1763): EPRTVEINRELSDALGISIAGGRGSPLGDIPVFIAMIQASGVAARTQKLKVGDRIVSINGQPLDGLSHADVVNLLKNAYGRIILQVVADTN

[15] = target: LNX1_1, Q8TBB1
Chain of LNX1_1, Q8TBB1 (Q8TBB1 261-371): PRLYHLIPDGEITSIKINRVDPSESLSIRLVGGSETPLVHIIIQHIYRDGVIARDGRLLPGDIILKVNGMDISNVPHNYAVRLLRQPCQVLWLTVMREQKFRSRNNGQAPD

[16] = target: LNX1_3, Q8TBB1
Chain of LNX1_3, Q8TBB1 (Q8TBB1 500-596): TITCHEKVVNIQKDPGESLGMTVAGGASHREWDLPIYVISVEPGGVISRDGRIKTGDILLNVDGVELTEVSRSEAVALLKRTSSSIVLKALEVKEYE

[17] = target: T4, LNX2_3, Q8N448
[18] = target: MAGI2_4, Q86UL8
Chain of MAGI2_4, Q86UL8 (Q86UL8 772-865): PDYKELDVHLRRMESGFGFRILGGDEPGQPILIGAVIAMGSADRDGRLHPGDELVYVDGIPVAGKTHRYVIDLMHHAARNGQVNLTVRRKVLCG

[19] = target: MAGI2_5, Q86UL8
Chain of MAGI2_5, Q86UL8 (Q86UL8 915-1017): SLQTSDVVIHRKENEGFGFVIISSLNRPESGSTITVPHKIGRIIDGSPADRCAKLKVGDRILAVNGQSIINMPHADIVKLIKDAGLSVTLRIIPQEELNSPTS

[20] = target: T5, MPP2, Q14168
[21] = target: T6, MPP7, Q5T2T1
[22] = target: T7, NHERF3_1, Q5T2W1
[23] = target: T8, PCLO, Q9Y6V0
[24] = target: T9, PDZRN3_1, Q9UPQ7
[25] = target: PTPN3, P26045
Chain of PTPN3, P26045 (P26045 505-587): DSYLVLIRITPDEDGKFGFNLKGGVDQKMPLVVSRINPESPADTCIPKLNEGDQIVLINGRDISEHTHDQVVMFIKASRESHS

[26] = target: SCRIB_3, Q14160
Chain of SCRIB_3, Q14160 (Q14160 999-1103): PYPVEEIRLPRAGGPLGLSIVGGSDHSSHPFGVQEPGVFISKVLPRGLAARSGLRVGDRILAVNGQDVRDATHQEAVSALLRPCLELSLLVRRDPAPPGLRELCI

[27] = target: T10, SNTG1, Q9NSN8
[28] = target: TJP1_3, Q07157
Chain of TJP1_3, Q07157 (Q07157 416-512): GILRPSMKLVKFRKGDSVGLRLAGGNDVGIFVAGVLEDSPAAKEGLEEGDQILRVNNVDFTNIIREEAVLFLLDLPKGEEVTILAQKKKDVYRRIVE

Binder | pKd [1] | pKd [2] | pKd [3] | pKd [4] | pKd [5] | pKd [6] | pKd [7] | pKd [8] | pKd [9] | pKd [10] | pKd [11] | pKd [12] | pKd [13] | pKd [14] | pKd [15] | pKd [16] | pKd [17] | pKd [18] | pKd [19] | pKd [20] | other results
NNNVVKVDSV [MTNR1A, P48039] | 3.92 | below the threshold | below the threshold | below the threshold | below the threshold | below the threshold | below the threshold | below the threshold | below the threshold | below the threshold | below the threshold | below the threshold | below the threshold | below the threshold | below the threshold | below the threshold | below the threshold | below the threshold | below the threshold | below the threshold | pKd [21]: below the threshold; pKd [22]: below the threshold; pKd [23]: below the threshold; pKd [24]: below the threshold; pKd [25]: below the threshold; pKd [26]: below the threshold; pKd [27]: below the threshold; pKd [28]: below the threshold
GIKKITSTAL [RPS6KA3, P51812] | 4.1 | below the threshold | 3.93 | 4.05 | 4.18 | 4.26 | 4.74 | 3.56 | below the threshold | 3.8 | 3.88 | 3.5 | below the threshold | 3.66 | 3.8 | below the threshold | 3.49 | 3.8 | 3.95 | below the threshold | pKd [21]: below the threshold; pKd [22]: 5.64; pKd [23]: below the threshold; pKd [24]: 4.36; pKd [25]: 5; pKd [26]: 5.06; pKd [27]: 3.68; pKd [28]: below the threshold
